Experimental data taken from patent US20150216970A1 (Genentech, published 2015).
Changes are numbered by the printed parent chain. Names and notes keep the numbering of the source.

T1: CD226-Flag (Flag-tagged human CD226, expressed in transfected COS 7 cells) (human, UniProt Q15762 19-336)
T1 construct: whole, on cells; This is the construct of the co-immunoprecipitation; Cells were lysed before the pull-down; also called Flag-CD226; not shown: Flag tag
T1 sequence (looked up): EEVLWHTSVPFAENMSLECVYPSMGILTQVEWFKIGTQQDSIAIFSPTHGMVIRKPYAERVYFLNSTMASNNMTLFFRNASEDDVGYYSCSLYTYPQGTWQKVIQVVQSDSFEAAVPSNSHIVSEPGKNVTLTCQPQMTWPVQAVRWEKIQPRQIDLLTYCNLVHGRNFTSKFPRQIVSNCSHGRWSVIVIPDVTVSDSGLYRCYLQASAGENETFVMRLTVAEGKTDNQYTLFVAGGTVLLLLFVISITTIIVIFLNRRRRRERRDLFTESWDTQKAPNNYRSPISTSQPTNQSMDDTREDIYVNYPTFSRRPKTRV

T2: endogenous CD226 on primary human T cells (human, UniProt Q15762 19-336)
T2 construct: whole, on cells
T2 sequence (looked up): T1 sequence (looked up)

B1: HA-TIGIT (N-terminus HA-tagged human TIGIT, expressed on transfected COS-7 or CHO cells) (receptor, UniProt Q495A1 22-244, looked up)
chain: MMTGTIETTGNISAEKGGSIILQCHLSSTTAQVTQVNWEQQDQLLAICNADLGWHISPSFKDRVAPGPGLGLTLQSLTVNDTGEYFCIYHTYPDGTYTGRIFLEVLESSVAEHGARFQIPLLGAMAATLVVICTAVIVVVALTRKKKALRIHSVEGDLRRKSAGQEEWSPSAPSPPGSCVQAEAAPAGLCGEQRGEDCAELHDYFNVLSYRSLGNCSFFTETG
notes: whole, on cells; It is treated here as one construct; also called TIGIT-HA; HA-TIGIT (WT); not shown: HA tag at the N-terminus
B2: endogenous TIGIT on primary human T cells (receptor, UniProt Q495A1 22-244, looked up)
chain: B1 chain
notes: whole, on cells
B3: HA-TIGIT Q56R (receptor, UniProt Q495A1 22-244, looked up)
chain: B1 chain with Q35R
notes: whole, on cells; also called Q56R TIGIT; not shown: HA tag
B4: Flag-ST-CD226 (N-terminus SNAP-tagged human CD226, expressed on transfected COS-7 or CHO cells) (receptor, UniProt Q15762 19-336, looked up)
chain: T1 sequence (looked up)
modifications: SNAP tag labelled with benzyl-guanine SNAP-Lumi-4Tb (donor) and/or SNAP-A647 (acceptor)
notes: whole, on cells; also called SNAP-tagged (ST) CD226; human ST-CD226; not shown: Flag tag; SNAP tag (ST)

Key:
[1] = target: T1, CD226-Flag (Flag-tagged human CD226, …); assay: anti-FLAG and anti-HA immunoprecipitation and immunoblot from COS-7 cells transfected with Flag-CD226 and HA-TIGIT
[2] = target: B4; assay: TR-FRET on transfected COS-7 cells
[3] = target: T2, endogenous CD226 on primary human T …; assay: TR-FRET on primary human T cells with fluorophore-conjugated anti-TIGIT (clone 1F4) and anti-CD226
From the text: Primary human T cells were stimulated in vitro with anti-CD3 and anti-CD28 antibodies, sorted on the basis of TIGIT expression, rested, re-stimulated, and labeled with antibodies against endogenous TIGIT and CD226 that were conjugated to fluorophores compatible with TR-FRET. TIGIT-expressing T cells labeled with donor-conjugated anti-TIGIT and acceptor-conjugated anti-CD226 antibodies yielded a strong FRET signal (FIG. 30).
Human anti-TIGIT (Genentech clone 1F4), anti-CD226 (Santa Cruz Biotechnology), and anti-HVEM (eBioscience) antibodies were conjugated fluorophores compatible with TR-FRET (Cisbio). Primary human T cells were MACS-enriched from blood, stimulated in vitro with plate bound anti-CD3 and anti-CD28 for 72 hours. TIGIT-expressing and non-expressing T cells (all expressing CD226) were then sorted, rested without stimulation for 72 hours, and re-stimulated for 48 hours. […] T cells were then seeded at 400,000 cells/well in a white 96-well plate (Costar) and TR-FRET was recorded at 665 nm for 400 μs after a 60 μs delay following laser excitation at 343 nm using a PHERAstar plate reader (BMG Labtech). FRET intensity was expressed as the signal at 665 nm from cells labeled with Ab-Lumi4-Tb+Ab-d2 minus the signal at 665 nm from the same batch of cells labeled with Ab-Lumi4-Tb alone. […]

[4] = target: B4; assay: TR-FRET ratio between Flag-ST-CD226 and HA-TIGIT Q56R
TR-FRET on COS-7 cells = target: the molecule itself; assay: TR-FRET on COS-7 cells
Protocol: Briefly, COS-7 cells were transfected with SNAP-tagged (ST) CD226 and HA-TIGIT using Lipofectamine 2000 (Life Technologies) and seeded in a white 96-well plate (Costar) at 100,000 cells per well. 24 hours later, cells were labeled with 100 nM of donor-conjugated benzyl-guanine SNAP-Lumi-4Tb (Cisbio) and 1 μM […] benzyl-guanine SNAP-A647 (New England Biolabs) diluted in DMEM 10% FCS for 1 h at 37° C., 5% CO2. After three washes in PBS, the FRET signal was recorded at 665 nm for 400 μs after a 60 μs delay following laser excitation at 343 nm using a Safire2 plate reader (Tecan). When the anti-TIGIT antibody was tested, the FRET signal was also recorded after a 15 min incubation. The FRET ratio was then calculated as the FRET intensity divided by the donor emission at 620 nm. The FRET intensity being: (signal at 665 nm from cells labeled with SNAP-donor and acceptor)—(signal at 665 nm from the same batch of transfected cells labeled with SNAP-donor only).

Binder: B1
binding result [1]: binds | binding result [2]: binds

Binder: B2
binding result [3]: binds

Binder: B3
binding result [4]: binds

Binder: B4
binding result (TR-FRET on COS-7 cells): binds
